Measurements published in publication PMC3604778.
Where two headings read alike, the source gives them in different places.

Assays:
[1] = target: human plasminogen (human); assay: SPR
[2] = target: SCM expressed on the surface of S. canis G361 (Streptococcus canis (endogenous in strain G361)); assay: radioligand binding
[3] = target: human plasminogen (human); assay: radioligand binding
[4] = target: SCM expressed on the surface of S. canis G361 (Streptococcus canis (endogenous in strain G361)); assay: radioligand binding; remark: listed apart in the source

| Kd [1] [µM] | Substance | percent binding of 125I-SCM to G361 (1 × 10^7 bacteria) [2] [%] | percent binding of 125I-SCM to G361 (2 × 10^7 bacteria) [2] [%] | percent binding of 125I-SCM to G361 (4 × 10^6 bacteria) [2] [%] | percent binding of 125I-SCM to G361 (control without inhibitor) [2] [%] | percent binding of 125I-SCM to G361 bacteria [2] [%] | percent binding of 125I-SCM to G361 left with 1.0 µM nonlabeled SCM [2] [%] | percent binding of 125I-SCM to G361 left with 10.0 µg nonlabeled SCM [2] [%] | percent specific binding of 125I-SCM to G361 bacteria [2] [%] | percent binding of 125I-plasminogen to G361 left with 1.0 µM nonlabeled SCM [3] [%] | percent binding of 125I-SCM to G361 bacteria [4] [%] |
| --- | --- | --- | --- | --- | --- | --- | --- | --- | --- | --- | --- |
| 0.8 | recombinant S. canis enolase (strain G361) (from UniProt A0A2D4DNT6 1-435) (enzyme) |  |  |  |  |  |  |  |  |  |  |
|  | purified recombinant SCM, M-like protein of S. canis (derived from strain G361) (natural protein) | 13.1 | 19.3 | 6.5 | 28.7 | 23.5 | 15.8 | 4.2 | 20.5 | 41.3 | 25.7 |
